± gives the uncertainty stated by the source.

Results on 57 substances are retold here after the supplement of paper PMC12042874.

This data set is described as follows: amyloid nucleation score (Sup35N fusion, yeast selection) (log enrichment); library NNK1; higher = more nucleation; inactive = no reads after selection. The essentials:
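After 24 hours of induction with 100 μM copper sulfate, psi-negative yeast expressing peptides of 20 random codons fused to Sup35N were grown for 7 days at 30°C on medium lacking adenine and uracil. Input and output plasmid inserts were sequenced with Illumina, and sequences with under 100 input reads were discarded. Scores for nucleation are the DiMSum log enrichment of output over input reads, centred on the mode score of non-aggregating sequences.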
Consider NVIID, for which the amyloid nucleation score entry was “inactive”.
Substance FRNTERGEFNVVYGSPGFSR showed an amyloid nucleation score of 0.751 ± 0.51.
Turning to SFKWVVRVWRCRILWNSGVS, the amyloid nucleation score worked out at 0.001 ± 0.78.
Regarding VTSSWNSDAFTWFYNDSWCL, the amyloid nucleation score result is “inactive”.
With EVQSDSSEVRDTEYMDISSW the entry was “inactive”; with RFWSIDRCAWSLMGGILRYG, -0.01 ± 0.43.
The result for NDYTELEIFCNLLRLMFWVV reads -0.162 ± 0.48; that for LASFMQRRAYSDGHDMLVRM, “inactive”; that for RNLRY, 0.184 ± 1.1.
As for MSGVRYLCCL, the amyloid nucleation score amounted to 0.087 ± 0.58.
The result for DSGTLDQYH reads 0.157 ± 0.86; that for GVAMCEEWRLMISE, 0.185 ± 0.74; that for NRGSRTVLWDGNWAGTNTMP, -0.154 ± 0.47.
With ISVKSW, the amyloid nucleation score is -0.325 ± 0.98.
With TWIFVSLACKAL the figure was -0.045 ± 0.4; with RQSRLAYGCVLVYVLTADFG, -0.025 ± 0.29.
GFFDSCLEMFTLSTYFCTFY registered an amyloid nucleation score of 2.86 ± 0.096.
With DYKVTRPVDLVFDFGGIVYT the figure was 0.714 ± 0.22; with LILFVGIYTLHYYGFNRRYS, 0.272 ± 0.69; with SFLWYIGFNSWRFCGRYTTL, 0.174 ± 0.5.
With GLRLNITNSRGRPRETWRGR the figure was 2.33 ± 0.24; with EVNLHLGCVWLVRLCVSDDG, 2.08 ± 0.19.
On to TSVVVRSPRGVVEPKHYFCI, for which the amyloid nucleation score is -1.19 ± 2.4.
Substance ENERMTLHCGYFKNMCMFRF returned an amyloid nucleation score of 1.9 ± 0.22.
The result for PESCANSWSMSYGAFGAVYC reads “inactive”; that for RFCLAVGLRMGYFLGCSDFR, -0.45 ± 1.4.
The result for LVVYRSKQRSYCCM reads -0.359 ± 1.9.
The result for RVCKYGCAKT reads 0.566 ± 0.34; that for TMLLDAYHEFKWANTNLFWL, -0.263 ± 0.93.
As to GPSLWLKTMVKGYAKTGLYR, the amyloid nucleation score was -0.219 ± 0.32.
With ISGFRKLVMVREVP the figure was -0.606 ± 1.4.
The result for LYKDGQGSKEAIVSRVDCMS reads 0.892 ± 0.25; that for SAAPRFCSYSSFFALSNLSI, 0.615 ± 0.3.
In the case of GIVFIIQYS, the amyloid nucleation score entry is “inactive”.
The result for VLLVGDPDLPRKRRLRRIAE reads 1.23 ± 0.62.
The result for SVSMY reads 0.068 ± 0.27; that for VIIRIIKFTCNSSLIIITKW, 0.694 ± 0.49.
The result for LSFEIFMNVTRPSICHKVSL reads -2.04 ± 2.4; that for SLNSPL, 0.391 ± 0.85; that for IWRWPRMESKSGYHSDFNST, -1.32 ± 2.4.
Regarding DFDNEGLWCS, the amyloid nucleation score was -0.217 ± 0.42.
For the substance PWYTSLEIKRSEETCKAMPF, the amyloid nucleation score worked out at 0.302 ± 0.41.
As for IVLWCTWYYNWNWPSALFRM, the amyloid nucleation score is -0.192 ± 0.78.
With WPWNEPY the figure was -0.251 ± 0.48; with KCIYTEKEMGLSAFTLRLYI, 6.286 ± 0.058.
With QLKCPKNDHVIVWDFCINQL the figure was 2.28 ± 0.32; with AGSLAM, -0.246 ± 0.48.
The result for FFCWTCSAINLYRLLGPPMF reads 5.67 ± 0.064.
In the case of HSTCLPNTIQTLRRRALSCR, the amyloid nucleation score was -1.22 ± 1.9.
With RHVSPFNSS the figure was -0.222 ± 0.31.
The result for IFDYSTLECESDEGEAEGMS reads 0.572 ± 0.81; that for IFHLCFLKGNGSFMLYKRHT, -0.462 ± 0.51.
The result for VLSVGQESTMISESGFNTEN reads -0.001 ± 0.55; that for KIFDMRVESVYWVGRSPSKV, 0.706 ± 0.17.
For the substance PWASNIAFLNFPTCTDCDG, the amyloid nucleation score stood at 2.09 ± 0.28.
With FSPLCKPLNSWYNQVKYRRH the figure was 0.131 ± 0.84; with GDIFSVQQPSNHQLETLKYS, “inactive”.
